# According to patent US20040105862A1 (published 2004):
# Where two headings read alike, the source gives them in different places.
# B1: MS-BW-3 (Fab, V domains shown)
# VH: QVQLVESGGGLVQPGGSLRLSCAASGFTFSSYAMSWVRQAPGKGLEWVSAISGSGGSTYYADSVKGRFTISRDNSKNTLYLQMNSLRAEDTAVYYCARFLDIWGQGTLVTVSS
# VL: DIALTQPASVSGSPGQSITISCTGTSSDVGGYNYVSWYQQHPGKAPKLMIYDVSNRPSGVSNRFSGSKSGNTASLTISGLQAEDEADYYCQSYDFLRFSVFGGGTKLTVL
# B2: MS-BW-44 (Fab, V domains shown)
# VH: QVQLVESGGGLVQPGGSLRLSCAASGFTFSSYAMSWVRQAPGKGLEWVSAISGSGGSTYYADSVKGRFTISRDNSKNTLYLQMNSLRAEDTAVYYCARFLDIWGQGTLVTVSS
# VL: DIALTQPASVSGSPGQSITISCTGTSSDVGGYNYVSWYQQHPGKAPKLMIYDVSNRPSGVSNRFSGSKSGNTASLTISGLQAEDEADYYCQSYDFVRFMVFGGGTKLTVLG
# B3: MS-BW-44-2 (Fab, V domains shown)
# VH: QVQLVESGGGLVQPGGSLRLSCAASGFTFSSYAMSWVRQAPGKGLEWVSGISGNGVLIFYADSVKGRFTISRDNSKNTLYLQMNSLRAEDTAVYYCARFLDIWGQGTLVTVSS
# VL: DIALTQPASVSGSPGQSITISCTGTSSDVGGYNYVSWYQQHPGKAPKLMIYDVSNRPSGVSNRFSGSKSGNTASLTISGLQAEDEADYYCQSYDFVRFMVFGGGTKLTVLG
# notes: Fab
# B4: MS-BW-44-6 (Fab, V domains shown)
# VH: QVQLVESGGGLVQPGGSLRLSCAASGFTFNSYAMSWVRQAPGKGLEWVSVISGNGSNTYYADSVKGRFTISRDNSKNTLYLQMNSLRAEDTAVYYCARFLDIWGQGTLVTVSS
# VL: DIALTQPASVSGSPGQSITISCTGTSSDVGGYNYVSWYQQHPGKAPKLMIYDVSNRPSGVSNRFSGSKSGNTASLTISGLQAEDEADYYCQSYDFVRFMVFGGGTKLTVLG
# notes: Fab
# B5: MS-BW-44-6-1 (Fab, V domains shown)
# VH: QVQLVESGGGLVQPGGSLRLSCAASGFTFNSYAMSWVRQAPGKGLEWVSVISGNGSNTYYADSVKGRFTISRDNSKNTLYLQMNSLRAEDTAVYYCARFLDIWGQGTLVTVSS
# VL: DIALTQPASVSGSPGQSITISCTGTSSDVGGYNYVSWYQQHPGKAPKLMIYDVSNRPSGVSNRFSGSKSGNTASLTISGLQAEDEADYYCQSYDFIRFMVFGGGTKLTVLG
# B6: MS-BW-44-2-4 (Fab, V domains shown)
# VH: QVQLVESGGGLVQPGGSLRLSCAASGFTFSSYAMSWVRQAPGKGLEWVSGISGNGVLIFYADSVKGRFTISRDNSKNTLYLQMNSLRAEDTAVYYCARGLMDYWGQGTLVTVSS
# VL: DIALTQPASVSGSPGQSITISCTGTSSDVGGYNYVSWYQQHPGKAPKLMIYDVSNRPSGVSNRFSGSKSGNTASLTISGLQAEDEADYYCQSYDFVRFMVFGGGTKLTVLG
# B7: MS-BW-44-2-15 (Fab, V domains shown)
# VH: QVQLVESGGGLVQPGGSLRLSCAASGFTFSSYAMSWVRQAPGKGLEWVSGISGNGVLIFYADSVKGRFTISRDNSKNTLYLQMNSLRAEDTAVYYCARWFDHWGQGTLVTVSS
# VL: DIALTQPASVSGSPGQSITISCTGTSSDVGGYNYVSWYQQHPGKAPKLMIYDVSNRPSGVSNRFSGSKSGNTASLTISGLQAEDEADYYCQSYDFVRFMVFGGGTKLTVLG
# B8: MS-BW-44-2-16 (Fab, V domains shown)
# VH: QVQLVESGGGLVQPGGSLRLSCAASGFTFSSYAMSWVRQAPGKGLEWVSGISGNGVLIFYADSVKGRFTISRDNSKNTLYLQMNSLRAEDTAVYYCARWFDVWGQGTLVTVSS
# VL: DIALTQPASVSGSPGQSITISCTGTSSDVGGYNYVSWYQQHPGKAPKLMIYDVSNRPSGVSNRFSGSKSGNTASLTISGLQAEDEADYYCQSYDFVRFMVFGGGTKLTVLG
# B9: MS-BW-63 (Fab, V domains shown)
# VH: QVQLVQSGAEVKKPGESLKISCKGSGYSFTSYWIGWVRQMPGKGLEWMGIIYPGDSDTRYSPSFQGQVTISADKSISTAYLQWSSLKASDTAMYYCARILTGHVLLFDYWGQGTLVTVSS
# VL: DIALTQPASVSGSPGQSITISCTGTSSDVGGYNYVSWYQQHPGKAPKLMIYDVSNRPSGVSNRFSGSKSGNTASLTISGLQAEDEADYYCQSDNPYLVFGGGTKLTVLG
# B10: MS-BW-17-1 Fab (Fab, V domains shown)
# VH: QVQLVQSGAEVKKPGESLKISCKGSGYSFTSYWIGWVRQMPGKGLEWMGIIYPGDSDTRYSPSFQGQVTISADKSISTAYLQWSSLKASDTAMYYCARLTNYFDSIYYDHWGQGTLVTVSS
# VL: DIALTQPASVSGSPGQSITISCTGTSSDVGGYNYVSWYQQHPGKAPKLMIYDVSNRPSGVSNRFSGSKSGNTASLTISGLQAEDEADYYCQAFDVAPNGKVFGGGTKLTVLG
# notes: Fab; LCDR3-optimised from MS-BW-17
# B11: MS-BW-17-2 (Fab, V domains shown)
# VH: QVQLVQSGAEVKKPGESLKISCKGSGYSFTSYWIGWVRQMPGKGLEWMGIIYPGDSDTRYSPSFQGQVTISADKSISTAYLQWSSLKASDTAMYYCARLTNYFDSIYYDHWGQGTLVTVSS
# VL: DIALTQPASVSGSPGQSITISCTGTSSDVGGYNYVSWYQQHPGKAPKLMIYDVSNRPSGVSNRFSGSKSGNTASLTISGLQAEDEADYYCQAFAVMPNVEVFGGGTKLTVLG
# What was measured:
# human TIMP-1 [1] = target: T1, human TIMP-1 (human, UniProt P01033 24-207); assay: cell-based or functional assay
# human TIMP-1 [2] = target: T1, human TIMP-1; assay: BIAcore SPR, Fab, monovalent fit
# human TIMP-1 [3] = target: T1, human TIMP-1; assay: BIAcore SPR, Fab, monovalent fit; remark: listed apart in the source
# human TIMP-1 [4] = target: T1, human TIMP-1; assay: cell-based or functional assay; remark: listed apart in the source
# human TIMP-1 [5] = target: T1, human TIMP-1; assay: BIAcore SPR, Fab
# human TIMP-1 [6] = target: T1, human TIMP-1; assay: cell-based or functional assay; remark: listed apart in the source
# rat TIMP-1 [7] = target: T2, rat TIMP-1 (rat, UniProt P30120 24-217); assay: cell-based or functional assay
# T2 sequence (P30120 24-217 limits assumed): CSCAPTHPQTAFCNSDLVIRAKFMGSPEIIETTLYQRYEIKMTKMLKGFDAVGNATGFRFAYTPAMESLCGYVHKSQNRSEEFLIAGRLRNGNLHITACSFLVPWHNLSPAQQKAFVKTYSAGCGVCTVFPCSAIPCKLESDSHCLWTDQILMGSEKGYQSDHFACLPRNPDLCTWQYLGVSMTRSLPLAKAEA
# rat TIMP-1 [8] = target: T2, rat TIMP-1; assay: BIAcore SPR, Fab
# rat TIMP-1 [9] = target: T2, rat TIMP-1; assay: cell-based or functional assay; remark: listed apart in the source
binder,measurement,setting,value
B1,IC50 in human protease assay,human TIMP-1 [1],0.011 µM
same,Kd,human TIMP-1 [2],0.013 µM
same,Kd,human TIMP-1 [3],0.013 µM
B2,improvement factor (IC50) over MS-BW-3,human TIMP-1 [4],2.75 fold
B3,gain factor (IC50) over MS-BW-44,human TIMP-1 [4],5 fold
same,affinity gain factor (Kd) over MS-BW-44,human TIMP-1 [5],5 fold
same,ID50 in human protease assay (modified assay),human TIMP-1 [6],0.0004 µM
B4,gain factor (IC50) over MS-BW-44,human TIMP-1 [4],10 fold
same,affinity gain factor (Kd) over MS-BW-44,human TIMP-1 [5],5 fold
same,ID50 in human protease assay (modified assay),human TIMP-1 [6],0.0002 µM
B5,ID50 in human protease assay (modified assay),human TIMP-1 [6],0.0002 µM
B6,ID50 in human protease assay (modified assay),human TIMP-1 [6],0.0002 µM
B7,ID50 in human protease assay (modified assay),human TIMP-1 [6],0.0002 µM
B8,ID50 in human protease assay (modified assay),human TIMP-1 [6],0.0003 µM
B9,IC50 in rat protease assay,rat TIMP-1 [7],20000 µM
B10,improvement factor (affinity) over parental clone,rat TIMP-1 [8],16.3 fold
B11,improvement factor (functional activity in the protease assay) over parental clone,rat TIMP-1 [9],10 fold
